This is an account of results in patent publication US20140213513A1 (Sanofi, priority 2012, published 2014).

The labels stand for the following.
B1: exendin-4 peptide analogue SEQ ID NO: 51 (peptide)
peptide: Y[Aib]QGTFTSDLSIQK([γGlu-Palmitoyl])DSRAQQDFIEWLKAGGPSSGAPPPS-NH2
modifications: N-terminus assumed
SMILES: CCCCCCCCCCCCCCCC(=O)N[C@@H](CCC(=O)NCCCC[C@H](NC(=O)[C@H](CCC(N)=O)NC(=O)[C@@H](NC(=O)[C@H](CO)NC(=O)[C@H](CC(C)C)NC(=O)[C@H](CC(=O)O)NC(=O)[C@H](CO)NC(=O)[C@@H](NC(=O)[C@H](Cc1ccccc1)NC(=O)[C@@H](NC(=O)CNC(=O)[C@H](CCC(N)=O)NC(=O)C(C)(C)NC(=O)[C@@H](N)Cc1ccc(O)cc1)[C@@H](C)O)[C@@H](C)O)[C@@H](C)CC)C(=O)N[C@@H](CC(=O)O)C(=O)N[C@@H](CO)C(=O)N[C@@H](CCCNC(=N)N)C(=O)N[C@@H](C)C(=O)N[C@@H](CCC(N)=O)C(=O)N[C@@H](CCC(N)=O)C(=O)N[C@@H](CC(=O)O)C(=O)N[C@@H](Cc1ccccc1)C(=O)N[C@H](C(=O)N[C@@H](CCC(=O)O)C(=O)N[C@@H](Cc1c[nH]c2ccccc12)C(=O)N[C@@H](CC(C)C)C(=O)N[C@@H](CCCCN)C(=O)N[C@@H](C)C(=O)NCC(=O)NCC(=O)N1CCC[C@H]1C(=O)N[C@@H](CO)C(=O)N[C@@H](CO)C(=O)NCC(=O)N[C@@H](C)C(=O)N1CCC[C@H]1C(=O)N1CCC[C@H]1C(=O)N1CCC[C@H]1C(=O)N[C@@H](CO)C(N)=O)[C@@H](C)CC)C(=O)O
B2: exendin-4 peptide analogue SEQ ID NO: 50 (peptide)
peptide: Y[Aib]QGTFTSDLSIQK([γGlu-Palmitoyl])DSRAVQDFIEWLKAGGPSSGAPPPS-NH2
modifications: N-terminus assumed
SMILES: CCCCCCCCCCCCCCCC(=O)N[C@@H](CCC(=O)NCCCC[C@H](NC(=O)[C@H](CCC(N)=O)NC(=O)[C@@H](NC(=O)[C@H](CO)NC(=O)[C@H](CC(C)C)NC(=O)[C@H](CC(=O)O)NC(=O)[C@H](CO)NC(=O)[C@@H](NC(=O)[C@H](Cc1ccccc1)NC(=O)[C@@H](NC(=O)CNC(=O)[C@H](CCC(N)=O)NC(=O)C(C)(C)NC(=O)[C@@H](N)Cc1ccc(O)cc1)[C@@H](C)O)[C@@H](C)O)[C@@H](C)CC)C(=O)N[C@@H](CC(=O)O)C(=O)N[C@@H](CO)C(=O)N[C@@H](CCCNC(=N)N)C(=O)N[C@@H](C)C(=O)N[C@H](C(=O)N[C@@H](CCC(N)=O)C(=O)N[C@@H](CC(=O)O)C(=O)N[C@@H](Cc1ccccc1)C(=O)N[C@H](C(=O)N[C@@H](CCC(=O)O)C(=O)N[C@@H](Cc1c[nH]c2ccccc12)C(=O)N[C@@H](CC(C)C)C(=O)N[C@@H](CCCCN)C(=O)N[C@@H](C)C(=O)NCC(=O)NCC(=O)N1CCC[C@H]1C(=O)N[C@@H](CO)C(=O)N[C@@H](CO)C(=O)NCC(=O)N[C@@H](C)C(=O)N1CCC[C@H]1C(=O)N1CCC[C@H]1C(=O)N1CCC[C@H]1C(=O)N[C@@H](CO)C(N)=O)[C@@H](C)CC)C(C)C)C(=O)O
B3: exendin-4 peptide analogue SEQ ID NO: 10 (peptide)
peptide: Y[Aib]QGTFTSDLSIQK([γGlu-Palmitoyl])EKYAA[Aib]EFIEWLKNTGPSSGAPPPS-NH2
modifications: N-terminus assumed
SMILES: CCCCCCCCCCCCCCCC(=O)N[C@@H](CCC(=O)NCCCC[C@H](NC(=O)[C@H](CCC(N)=O)NC(=O)[C@@H](NC(=O)[C@H](CO)NC(=O)[C@H](CC(C)C)NC(=O)[C@H](CC(=O)O)NC(=O)[C@H](CO)NC(=O)[C@@H](NC(=O)[C@H](Cc1ccccc1)NC(=O)[C@@H](NC(=O)CNC(=O)[C@H](CCC(N)=O)NC(=O)C(C)(C)NC(=O)[C@@H](N)Cc1ccc(O)cc1)[C@@H](C)O)[C@@H](C)O)[C@@H](C)CC)C(=O)N[C@@H](CCC(=O)O)C(=O)N[C@@H](CCCCN)C(=O)N[C@@H](Cc1ccc(O)cc1)C(=O)N[C@@H](C)C(=O)N[C@@H](C)C(=O)NC(C)(C)C(=O)N[C@@H](CCC(=O)O)C(=O)N[C@@H](Cc1ccccc1)C(=O)N[C@H](C(=O)N[C@@H](CCC(=O)O)C(=O)N[C@@H](Cc1c[nH]c2ccccc12)C(=O)N[C@@H](CC(C)C)C(=O)N[C@@H](CCCCN)C(=O)N[C@@H](CC(N)=O)C(=O)N[C@H](C(=O)NCC(=O)N1CCC[C@H]1C(=O)N[C@@H](CO)C(=O)N[C@@H](CO)C(=O)NCC(=O)N[C@@H](C)C(=O)N1CCC[C@H]1C(=O)N1CCC[C@H]1C(=O)N1CCC[C@H]1C(=O)N[C@@H](CO)C(N)=O)[C@@H](C)O)[C@@H](C)CC)C(=O)O
B4: exendin-4 peptide analogue SEQ ID NO: 54 (peptide)
peptide: Y[Aib]EGTFTSDLSIQK([γGlu-Palmitoyl])DKRKAQDFIEWLKNGGPSSGAPPPS-NH2
modifications: N-terminus assumed
SMILES: CCCCCCCCCCCCCCCC(=O)N[C@@H](CCC(=O)NCCCC[C@H](NC(=O)[C@H](CCC(N)=O)NC(=O)[C@@H](NC(=O)[C@H](CO)NC(=O)[C@H](CC(C)C)NC(=O)[C@H](CC(=O)O)NC(=O)[C@H](CO)NC(=O)[C@@H](NC(=O)[C@H](Cc1ccccc1)NC(=O)[C@@H](NC(=O)CNC(=O)[C@H](CCC(=O)O)NC(=O)C(C)(C)NC(=O)[C@@H](N)Cc1ccc(O)cc1)[C@@H](C)O)[C@@H](C)O)[C@@H](C)CC)C(=O)N[C@@H](CC(=O)O)C(=O)N[C@@H](CCCCN)C(=O)N[C@@H](CCCNC(=N)N)C(=O)N[C@@H](CCCCN)C(=O)N[C@@H](C)C(=O)N[C@@H](CCC(N)=O)C(=O)N[C@@H](CC(=O)O)C(=O)N[C@@H](Cc1ccccc1)C(=O)N[C@H](C(=O)N[C@@H](CCC(=O)O)C(=O)N[C@@H](Cc1c[nH]c2ccccc12)C(=O)N[C@@H](CC(C)C)C(=O)N[C@@H](CCCCN)C(=O)N[C@@H](CC(N)=O)C(=O)NCC(=O)NCC(=O)N1CCC[C@H]1C(=O)N[C@@H](CO)C(=O)N[C@@H](CO)C(=O)NCC(=O)N[C@@H](C)C(=O)N1CCC[C@H]1C(=O)N1CCC[C@H]1C(=O)N1CCC[C@H]1C(=O)N[C@@H](CO)C(N)=O)[C@@H](C)CC)C(=O)O
B5: exendin-4 peptide analogue SEQ ID NO: 53 (peptide)
peptide: Y[Aib]QGTFTSDLSIQK([γGlu-Palmitoyl])DKRRAQDFIEWLKAGGPSSGAPPPS-NH2
modifications: N-terminus assumed
SMILES: CCCCCCCCCCCCCCCC(=O)N[C@@H](CCC(=O)NCCCC[C@H](NC(=O)[C@H](CCC(N)=O)NC(=O)[C@@H](NC(=O)[C@H](CO)NC(=O)[C@H](CC(C)C)NC(=O)[C@H](CC(=O)O)NC(=O)[C@H](CO)NC(=O)[C@@H](NC(=O)[C@H](Cc1ccccc1)NC(=O)[C@@H](NC(=O)CNC(=O)[C@H](CCC(N)=O)NC(=O)C(C)(C)NC(=O)[C@@H](N)Cc1ccc(O)cc1)[C@@H](C)O)[C@@H](C)O)[C@@H](C)CC)C(=O)N[C@@H](CC(=O)O)C(=O)N[C@@H](CCCCN)C(=O)N[C@@H](CCCNC(=N)N)C(=O)N[C@@H](CCCNC(=N)N)C(=O)N[C@@H](C)C(=O)N[C@@H](CCC(N)=O)C(=O)N[C@@H](CC(=O)O)C(=O)N[C@@H](Cc1ccccc1)C(=O)N[C@H](C(=O)N[C@@H](CCC(=O)O)C(=O)N[C@@H](Cc1c[nH]c2ccccc12)C(=O)N[C@@H](CC(C)C)C(=O)N[C@@H](CCCCN)C(=O)N[C@@H](C)C(=O)NCC(=O)NCC(=O)N1CCC[C@H]1C(=O)N[C@@H](CO)C(=O)N[C@@H](CO)C(=O)NCC(=O)N[C@@H](C)C(=O)N1CCC[C@H]1C(=O)N1CCC[C@H]1C(=O)N1CCC[C@H]1C(=O)N[C@@H](CO)C(N)=O)[C@@H](C)CC)C(=O)O
B6: exendin-4 peptide analogue SEQ ID NO: 52 (peptide)
peptide: Y[Aib]QGTFTSDLSIQK([γGlu-Palmitoyl])DSRRAQDFIEWLKAGGPSSGAPPPS-NH2
modifications: N-terminus assumed
SMILES: CCCCCCCCCCCCCCCC(=O)N[C@@H](CCC(=O)NCCCC[C@H](NC(=O)[C@H](CCC(N)=O)NC(=O)[C@@H](NC(=O)[C@H](CO)NC(=O)[C@H](CC(C)C)NC(=O)[C@H](CC(=O)O)NC(=O)[C@H](CO)NC(=O)[C@@H](NC(=O)[C@H](Cc1ccccc1)NC(=O)[C@@H](NC(=O)CNC(=O)[C@H](CCC(N)=O)NC(=O)C(C)(C)NC(=O)[C@@H](N)Cc1ccc(O)cc1)[C@@H](C)O)[C@@H](C)O)[C@@H](C)CC)C(=O)N[C@@H](CC(=O)O)C(=O)N[C@@H](CO)C(=O)N[C@@H](CCCNC(=N)N)C(=O)N[C@@H](CCCNC(=N)N)C(=O)N[C@@H](C)C(=O)N[C@@H](CCC(N)=O)C(=O)N[C@@H](CC(=O)O)C(=O)N[C@@H](Cc1ccccc1)C(=O)N[C@H](C(=O)N[C@@H](CCC(=O)O)C(=O)N[C@@H](Cc1c[nH]c2ccccc12)C(=O)N[C@@H](CC(C)C)C(=O)N[C@@H](CCCCN)C(=O)N[C@@H](C)C(=O)NCC(=O)NCC(=O)N1CCC[C@H]1C(=O)N[C@@H](CO)C(=O)N[C@@H](CO)C(=O)NCC(=O)N[C@@H](C)C(=O)N1CCC[C@H]1C(=O)N1CCC[C@H]1C(=O)N1CCC[C@H]1C(=O)N[C@@H](CO)C(N)=O)[C@@H](C)CC)C(=O)O

*1 amine or outer side, *2 acyl side, *3 side chain or, on linkers, in order; H or OH if unused. Where no end group is shown, it is not given here. Side-chain parts run from the residue outwards. [ ]: non-standard residue; d: D form. The star is where a group is joined. γGlu = O=C(O)[C@H](CCC(=O)[*:2])N[*:1]; Palmitoyl = CCCCCCCCCCCCCCCC(=O)*; Aib = CC(C)(N)C(=O)O

The target in one test is human GLP-1 receptor (human, UniProt P43220 24-463). The experiment in a line: cell-based or functional assay.
B1: the “EC50 hGLP-1 R” value amounted to 4.2 pM.
Same read-out and setting: in the case of B2 it was 10 pM.
The same measure, in the same setting: in the case of B3 it was 5.2 pM; in that of B4, 66.8 pM; in that of B5, 13.6 pM.
On the same count and under the same terms, in the case of B6 it was 25.6 pM.

For another test, the target named is T1, human GIP receptor (human, UniProt P48546 22-466).
T1 sequence (looked up): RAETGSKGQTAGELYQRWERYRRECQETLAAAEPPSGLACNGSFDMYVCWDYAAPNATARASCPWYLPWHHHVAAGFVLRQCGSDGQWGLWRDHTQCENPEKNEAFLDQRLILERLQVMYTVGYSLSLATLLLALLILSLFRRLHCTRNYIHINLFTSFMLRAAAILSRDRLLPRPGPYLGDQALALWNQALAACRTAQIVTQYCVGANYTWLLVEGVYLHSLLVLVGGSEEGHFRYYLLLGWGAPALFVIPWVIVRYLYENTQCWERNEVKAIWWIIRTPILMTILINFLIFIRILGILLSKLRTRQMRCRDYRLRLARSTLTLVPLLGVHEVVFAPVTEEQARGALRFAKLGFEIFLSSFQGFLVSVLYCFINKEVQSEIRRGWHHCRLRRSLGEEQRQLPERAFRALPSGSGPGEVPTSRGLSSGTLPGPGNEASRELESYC
The experiment in a line: cell-based or functional assay.
For the molecule B1, the “EC50 hGIP R” value worked out at 6.3 pM.
On to B2, for which the “EC50 hGIP R” value was determined as 47.9 pM.
Still for that read-out and setting: in the case of B3 it was 14.4 pM; in that of B4, 105 pM; in that of B5, 93.2 pM.
Still for that read-out and setting: the figure for B6 is 182 pM.

For another test, the target named is human glucagon receptor (human, UniProt P47871 26-477). Nature of the test: cell-based or functional assay.
human glucagon receptor, sequence (P47871 26-477): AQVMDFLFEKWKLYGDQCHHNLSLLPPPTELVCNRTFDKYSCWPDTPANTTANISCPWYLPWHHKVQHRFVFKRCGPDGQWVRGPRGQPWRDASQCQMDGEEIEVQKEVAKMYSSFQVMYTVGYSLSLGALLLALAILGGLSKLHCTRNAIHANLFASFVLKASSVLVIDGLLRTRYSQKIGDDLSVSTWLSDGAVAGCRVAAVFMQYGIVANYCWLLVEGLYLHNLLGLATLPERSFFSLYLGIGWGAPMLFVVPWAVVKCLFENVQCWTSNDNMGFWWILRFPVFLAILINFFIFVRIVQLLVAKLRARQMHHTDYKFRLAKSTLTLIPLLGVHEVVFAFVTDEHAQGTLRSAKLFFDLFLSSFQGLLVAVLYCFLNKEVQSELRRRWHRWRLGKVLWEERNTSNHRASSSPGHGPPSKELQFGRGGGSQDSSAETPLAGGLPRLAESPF
B1: the “EC50 hGLUC R” value worked out at 571 pM.
Consider B2, for which the “EC50 hGLUC R” value was determined as 1720 pM.
Same read-out and setting: the figure for B3 is 667 pM; for B4 it is 2620 pM; for B5 it is 7.9 pM.
For B6, the “EC50 hGLUC R” value turned out to be 13.3 pM.
